We go through one substance from patent publication US20260015421A1.

The assay concerns the target CD19 on CD19+ cells (Raji, Nalm6) (human) (UniProt P15391). The experiment in a line: cell-based or functional assay.
UniProt P15391, sequence (P15391 20-556): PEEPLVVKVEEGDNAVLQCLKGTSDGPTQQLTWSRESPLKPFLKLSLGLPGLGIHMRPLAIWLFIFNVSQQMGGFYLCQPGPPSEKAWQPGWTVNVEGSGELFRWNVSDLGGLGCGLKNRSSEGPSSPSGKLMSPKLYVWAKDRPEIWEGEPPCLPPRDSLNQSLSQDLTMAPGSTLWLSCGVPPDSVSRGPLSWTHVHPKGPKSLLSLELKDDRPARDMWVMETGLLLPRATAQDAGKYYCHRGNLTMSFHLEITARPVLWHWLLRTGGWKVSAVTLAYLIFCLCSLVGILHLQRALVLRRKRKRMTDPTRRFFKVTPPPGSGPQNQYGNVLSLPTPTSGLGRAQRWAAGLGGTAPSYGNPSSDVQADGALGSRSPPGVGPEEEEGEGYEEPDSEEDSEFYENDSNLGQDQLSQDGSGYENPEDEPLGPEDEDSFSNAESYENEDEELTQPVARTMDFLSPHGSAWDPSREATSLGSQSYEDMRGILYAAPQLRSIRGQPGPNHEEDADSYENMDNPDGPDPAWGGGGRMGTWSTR

For the substance “non-signaling CD19 CAR FMC63-CD8h-CD28TMCo-noZ (IL15 co-expressed), on γδ T cells (from UniProt P01732 138-182; P10747 153-220)”, the cytotoxicity against CD19+ Nalm6 ALL cells (7-AAD/CFSE flow cytometry, E:T=0.25-4.0) (fold over non-transduced control) amounted to 1.5.
